Measured values published in US10059956B2, “Glycosyltransferase gene and use thereof” (SUNTORY HOLDINGS LIMITED, priority 2012, dated 2018).

Columns and labels:
[1] = Enzyme activity of crude enzyme liquid of E. coli expressing NmGT0 to NmGT9 on apigenin (HPLC); type: biochemical, Nemophila menziesii; details: 80 μl crude enzyme liquid, UDP-glucose, 1 hour at 30° C., HPLC 330 nm
Procedure: 3 μg aliquots of each of pTOPO-NmGT0 to pTOPO-NmGT9 were treated with their corresponding restrictases followed by recovery of the resulting approximately 1.5 kb DNA fragments. 2 μg of vector pET15b was also treated with restrictase and ligated with the resulting DNA fragments to prepare E. coli expression constructs (pET-NmGT0 to pET-NmGT9).
pET-NmGT0 to pET-NmGT9 were introduced into E. coli strain […] using One Shot BL21 (DE3) (Invitrogen Corp.) in accordance with the protocol recommended by the manufacturer to acquire transformed E. coli. This E. coli was then cultured using the Overnight Express Autoinduction System 1 (Novagen Inc.) in accordance with the protocol recommended by the manufacturer. The transformed E. coli were cultured at 37° C. to an OD600 value of 0.5 in 2 ml of the prepared culture liquid (approx. 4 hours). This E. coli culture liquid was then used as a pre-culture liquid and added to 50 ml of culture liquid followed by final culturing overnight at 27° C. […]
A reaction liquid prepared by mixing 80 μl of crude enzyme liquid, 20 μl of 5 mM UDP-glucose, 20 μl of 1 M Tris HCl (pH 7.5) and 1 μl of 500 ng/μl apigenin on ice and bringing to a volume of 200 μl with water was held for 1 hour at 30° C. […] The Shimadzu PDA SPD-M10AVP was used for the detector and flavone was detected at 330 nm. […]

[2] = system: NmGT8 protein; assay: Enzyme reaction of flavone substrates with His-tag purified NmGT8 protein solution and UDP-glucose (HPLC); type: biochemical, Nemophila menziesii; details: reactivity to various flavonoid compounds of FIG. 11 and betanidine
Procedure: The transformed E. coli were cultured at 37° C. to an OD600 value of 0.5 in 8 ml of the prepared culture liquid (approx. 4 hours). This E. coli culture liquid was then used as a pre-culture liquid and added to 200 ml of culture liquid followed by final culturing overnight at 25° C.
Following final culturing overnight, the E. coli culture liquid was centrifuged (1000×g, 4° C., 10 minutes), the collected cells were suspended in 20 ml of extract (composition: buffer (KCl: 300 mM, KH2PO4: 50 mM, imidazole: 5 mm) (pH 8.0), amidinophenylmethanesulfonyl fluoride hydrochloride (APMSF): 10 μM), and after crushing the E. coli by ultrasonic treatment, the crushed cells were centrifuged (1400×g, 4° C., 20 minutes) followed by recovery of the supernatant. This supernatant was passed through a 0.45 μm filter and purified by His-Tag protein purification using Profinia (Bio-Rad Laboratories, Inc.) in accordance with the protocol recommended by the manufacturer. The resulting purified protein solution was centrifuged (7500×g, 4° C., 15 minutes) using centrifugal filters (Ultracel-10K, Amicon Corp.) and the concentrated protein solution was designated as “NmGT8 Protein Solution”. The Avanti HP-26XP (rotor: JA-2) (Beckman Coulter Inc.) was used for centrifugation.
A reaction liquid prepared by mixing 10 μl of protein solution, 2 μl of 50 mM UDP-glucose, 10 μl of 1 M Tris HCl (pH 7.5) and 5 μl of 1 mM apigenin on ice and bringing to a volume of 100 μl with water was held for 20 minutes at 30° C. Subsequently, 100 μl of stop buffer (90% aqueous acetonitrile solution containing 0.1% TFA) were added to stop the reaction followed by analyzing the reaction liquid by high-performance liquid chromatography (Prominence (Shimadzu Corp.)). The Shimadzu PDA SPD-M10AVP was used for the detector and flavone was detected at 330 nm. The Shim-Pack ODS 150 mm×4.6 mm column (Shimadzu Corp.) was used for the column. A Solution A (0.1% aqueous TFA solution) and a Solution B (90% aqueous methanol solution containing 0.1% TFA) were used for elution. Elution was carried out using a linear concentration gradient from an 8:2 mixture of the two solutions to a 3:7 mixture of the two solutions over the course of 10 minutes followed by a 3:7 mixture for 6 minutes. The flow rate was 0.6 ml/min.

B1: NmGT8: nemophila glycosyltransferase (SEQ ID NO: 1/2) having activity that transfers a sugar to the hydroxyl group at the 4′-position of a flavone (protein, listed as Nemophila menziesii)
chain: MEKKTIILYPSPGIGHLVSMVELAKLILNREPSYSIIIFISSAPYSTGSSAPYISHVSATTSGISFHHLPVLVLPPNTFSSFEEIAYKIPQLNNPNLKLALQTISKESSDLKAFIIDFFCTAAVEVSSNLEIPTYFFFTSGSSAMCQFLYLPTLHETITQKDLQDPNTYVHIPGIPPIHSLDLPKVLSNRSTVLYKELINTANQMAKCSGILINAFETLEPKAVKALKEGLCTPGMPTPPVYCIGPLIASGDKGNVNDAHGHEILTWLNSQPSKSVVFLCFGSLGTFKEDQLKEIAIGLENSGHRFLWVMKSPPIDDKTKRFLPPPEPDFNVLLPEGFLERTKERGVIVKSWAPQLAILNHDAIGGFVTHCGWNSVLEAICGGVPMLAWPLYAEQRVNRVCMVEEMKVALPLEESVDGFVMASEIEKRVKELVDYESSEAIRDQVKIMSEKAKTAVAVSGSSHDALTKLLDGWK
[1]
  HPLC peak other than substrate: a peak other than that of the substrate was observed
[2]
  substrate specificity: high substrate specificity and selectively glycosylate the 4′-position of flavones
